Data from the supplement of paper PMC5998384.

What was measured:
HeLa Kyoto [1] = experiment: solubility in G1/S (NP-40 vs SDS abundance) (log2 ratio); higher = more soluble; conditions: cell cycle stage: G1/S
HeLa Kyoto [2] = experiment: solubility change mitosis vs G1/S (difference of NP-40 vs SDS log2 ratios) (log2 ratio difference); higher = more soluble in mitosis
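Wherever solubility change mitosis vs G1/S (difference of NP-40 vs SDS log2 ratios) is given: synchronized HeLa Kyoto cells (double thymidine block for G1/S, nocodazole release for mitosis), protein amounts in NP-40 versus SDS lysates quantified by mass spectrometry, three biological replicates.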
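Wherever solubility in G1/S (NP-40 vs SDS abundance) is given: HeLa Kyoto cells arrested at G1/S by double thymidine block, proteins quantified by TMT10plex mass spectrometry in mild NP-40 versus SDS extracts, three biological replicates.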

Sequence | solubility in G1/S (log2) (HeLa Kyoto [1]) | solubility change mitosis (log2) (HeLa Kyoto [2])
MISAPDVVAFTKEEEYEEEPYNEPALPEEYSVPLFPFASQGANPWSKLSGAKFSRDFILISEFSEQVGPQPLLTIPNDTKVFGTFDLNYFSLRIMSVDYQASFVGHPPGSAYPKLNFVEDSKVVLGDSKEGAFAYVHHLTLYDLEARGFVRPFCMAYISADQHKIMQQFQELSAEFSRASECLKTGNRKAFAGELEKKLKDLDYTRTVLHTETEIQKKANDKGFYSSQAIEKANELASVEKSIIEHQDLLKQIRSYPHRKLKGHDLCPGEMEHIQDQASQASTTSNPDESADTDLYTCRPAYTPKLIKAKSTKCFDKKLKTLEELCDTEYFTQTLAQLSHIEHMFRGDLCYLLTSQIDRALLKQQHITNFLFEDFVEVDDRMVEKQESIPSKPSQDRPPSSSLEECPIPKVLISVGSYKSSVESVLIKMEQELGDEEYKEVEVTELSSFDPQENLDYLDMDMKGSISSGESIEVLGTEKSTSVLSKSDSQASLTVPLSPQVVRSKAVSHRTISEDSIEVLSTCPSEALIPDDFKASYPSAINEEESYPDGNEGAIRFQASISPPELGETEEGSIENTPSQIDSSCCIGKESDGQLVLPSTPAHTHSDEDGVVSSPPQRHRQKDQGFRVDFSVENANPSSRDNSCEGFPAYELDPSHLLASRDISKTSLDNYSDTTSYVSSVASTSSDRIPSAYPAGLSSDRHKKRAGQNALKFIRQYPFAHPAIYSLLSGRTLVVLGEDEAIVRKLVTALAIFVPSYGCYAKPVKHWASSPLHIMDFQKWKLIGLQRVASPAGAGTLHALSRYSRYTSILDLDNKTLRCPLYRGTLVPRLADHRTQIKRGSTYYLHVQSMLTQLCSKAFLYTFCHHLHLPTHDKETEELVASRQMSFLKLTLGLVNEDVRVVQYLAELLKLHYMQESPGTSHPMLRFDYVPSFLYKI [SMCR8] | -0.0823 | 0.0252
MKDVDNLKSIKEEWVCETGSDNQPLGNNQQSNCEYFVDSLFEEAQKVSSKCVSPAEQKKQVDVNIKLWKNGFTVNDDFRSYSDGASQQFLNSIKKGELPSELQGIFDKEEVDVKVEDKKNEICLSTKPVFQPFSGQGHRLGSATPKIVSKAKNIEVENKNNLSAVPLNNLEPITNIQIWLANGKRIVQKFNITHRVSHIKDFIEKYQGSQRSPPFSLATALPVLRLLDETLTLEEADLQNAVIIQRLQKTASFRELSEH [UBXN2A] | 0.0566 | 0.0265
MKFVYKEEHPFEKRRSEGEKIRKKYPDRVPVIVEKAPKARIGDLDKKKYLVPSDLTVGQFYFLIRKRIHLRAEDALFFFVNNVIPPTSATMGQLYQEHHEEDFFLYIAYSDESVYGL [GABARAP] | 0.16 | -0.0822
MKLHYVAVLTLAILMFLTWLPESLSCNKALCASDVSKCLIQELCQCRPGEGNCSCCKECMLCLGALWDECCDCVGMCNPRNYSDTPPTSKSTVEELHEPIPSLFRALTEGDTQLNWNIVSFPVAEELSHHENLVSFLETVNQPHHQNVSVPSNNVHAPYSSDKEHMCTVVYFDDCMSIHQCKISCESMGASKYRWFHNACCECIGPECIDYGSKTVKCMNCMF [TWSG1] | 0.0362 | -0.383
MKRVNSCVKSDEHVLEELETEGERQLKSLLQHQLDTSVSIEECMSKKESFAPGTMYKPFGKEAAGTMTLSQFQTLHEKDQETASLRELGLNETEILIWKSHVSGEKKTKLRATPEAIQNRLQDIEERISERQRILCLPQRFAKSKQLTRREMEIEKSLFQGADRHSFLKALYYQDEPQKKNKGDPMNNLESFYQEMIMKKRLEEFQLMRGEPFASHSLVSATSVGDSGTAESPSLLQDKGKQAAQGKGPSLHVANVIDFSPEQCWTGPKKLTQPIEFVPEDEIQRNRLSEEEIRKIPMFSSYNPGEPNKVLYLKNLSPRVTERDLVSLFARFQEKKGPPIQFRMMTGRMRGQAFITFPNKEIAWQALHLVNGYKLHGKILVIEFGKNKKQRSNLQATSLISCATGSTTEISGS [RBM41] | -0.192 | -0.0432
